According to patent US20160046707A1:
Where a chain is given by its changes, count along the chain named. Blank lines part the entries; values can stand above or below the binder they belong to.

Experiments:
[1] = target: recombinant human CCL20 (R&D Systems, #360-MP-025/CF) (human) (UniProt P78556); experiment: SPR (Biacore): antibody captured on anti-human Fc, 100 nM chemokine injected; ratio = chemokine binding level over antibody capture level
[2] = target: recombinant human CCL20 (R&D Systems, #360-MP-025/CF) (human) (UniProt P78556); experiment: SPR (Biacore), antibody captured by anti-human Fc, human CCL20 injected (monovalent format), 1:1 Langmuir, average of two experiments
[3] = target: recombinant human CCL20 (R&D Systems, #360-MP-025/CF) (human) (UniProt P78556); experiment: cell-based or functional assay

Sequence of recombinant human CCL20 (R&D Systems, #360-MP-025/CF) (human) (P78556 other isoform, or with tags, fused parts or gaps limits assumed): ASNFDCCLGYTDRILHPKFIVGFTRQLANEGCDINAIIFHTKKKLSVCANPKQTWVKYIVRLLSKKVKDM

ReqCk/ReqAb ratio [1]: 0.143 | Kd [2]: 0.07 nM | koff [2]: 0.00117 s⁻¹ | kon [2]: 1.66e+07 M⁻¹ s⁻¹ | IC50, chemotaxis assay, Assay-1 [3]: 0.65 nM | IC50, chemotaxis assay, Assay-2 [3]: 1.09 nM | IC50, chemotaxis assay, Assay-3 [3]: 1.3 nM | IC50, chemotaxis assay, Average [3]: 1.01 nM | IC90, chemotaxis assay, Assay-1 [3]: 3.55 nM | IC90, chemotaxis assay, Assay-2 [3]: 3.35 nM | IC90, chemotaxis assay, Assay-3 [3]: 6.79 nM | IC90, chemotaxis assay, Average [3]: 4.56 nM | IC95, chemotaxis assay, Assay-1 [3]: 7.59 nM | IC95, chemotaxis assay, Assay-2 [3]: 5.41 nM | IC95, chemotaxis assay, Assay-3 [3]: 13.9 nM | IC95, chemotaxis assay, Average [3]: 8.97 nM
B1: humanized anti-human CCL20 antibody 36LK3/36HC2 (antibody, human IgG1, kappa, V domains shown)
VH: QVQLVQSGAEVKKPGASVKVSCKASGYTFTNYWMHWVRQAPGQGLEWMGVIDPSDSYTTYAQKFQGRVTMTVDTSTSTVYMELSSLRSEDTAVYYCARGNYGVDYAMDYWGQGTLVTVSS
VL: DIQMTQSPSSLSASVGDRVTITCGASENIYGALNWYQRKPGKAPKLLIYGATNLADGVPSRFSGSGSGRDYTLTISSLQPEDFATYYCQNVLITPYTFGQGTKLEIKR

ReqCk/ReqAb ratio [1]: 0.156 | Kd [2]: 0.044 nM | koff [2]: 0.00061 s⁻¹ | kon [2]: 1.45e+07 M⁻¹ s⁻¹ | IC50, chemotaxis assay, Assay-1 [3]: 0.9 nM | IC50, chemotaxis assay, Assay-2 [3]: 1.26 nM | IC50, chemotaxis assay, Assay-3 [3]: 1.2 nM | IC50, chemotaxis assay, Average [3]: 1.12 nM | IC90, chemotaxis assay, Assay-1 [3]: 4.64 nM | IC90, chemotaxis assay, Assay-2 [3]: 5.82 nM | IC90, chemotaxis assay, Assay-3 [3]: 5.3 nM | IC90, chemotaxis assay, Average [3]: 5.25 nM | IC95, chemotaxis assay, Assay-1 [3]: 11.8 nM | IC95, chemotaxis assay, Assay-2 [3]: > 66.8 nM | IC95, chemotaxis assay, Assay-3 [3]: 10.3 nM
B2: humanized anti-human CCL20 antibody 36LC3/36HC2 (antibody, human IgG1, kappa, V domains shown)
VH: B1 VH
VL: B1 VL with G24R, R38Q, D70Q, T72S, Q100G

IC50, chemotaxis of human CCR6-transduced B300.19 cells toward 10 nM human CCL20 [3]: 1.7 nM | IC90, chemotaxis of human CCR6-transduced B300.19 cells toward 10 nM human CCL20 [3]: 3.94 nM | IC95, chemotaxis of human CCR6-transduced B300.19 cells toward 10 nM human CCL20 [3]: 7.68 nM
B3: mouse anti-human CCL20 monoclonal antibody 36F7C10 (antibody, V domains shown)
VH: QVQLQQPGAELVKPGASVKMSCKASGYTFTNYWMHWVKQRPGQGLEWIGVIDPSDSYTTYNQKFKGKATLTVDTSSSTAYMQLSSLTSEDSAVYYCTRGNYGVDYAMDYWGQGTSVTVSS
VL: DIQMTQSPASLSASVGETVTITCGASENIYGALNWYQRKQGKSPQLLIYGATNLADGMSSRFSGSGSGRQYSLKISSLHPDDVATYYCQNVLITPYTFGGGTKLEIK

ReqCk/ReqAb ratio [1]: 0.153 | IC50, chemotaxis of human CCR6-transduced B300.19 cells toward 10 nM human CCL20 [3]: 1.44 nM | IC90, chemotaxis of human CCR6-transduced B300.19 cells toward 10 nM human CCL20 [3]: 3.51 nM | IC95, chemotaxis of human CCR6-transduced B300.19 cells toward 10 nM human CCL20 [3]: 5.48 nM
B4: chimeric 36F7C10 antibody (36F7C10-hFc) (antibody, V domains shown)
VH: B3 VH
VL: B3 VL
